The source of these data is patent US7485460B2, “Enhanced growth of adult stem cells with Dkk-1” (Tulane University Health Sciences Center, priority 2003, dated 2009).

In test [1] the test system is MSCs (RS cells). The test can be described thus: Binding of biotinylated Dkk-1 peptides to MSCs (streptavidin-biotin fluorescence microscopy). Details: species or system human. The note with it: for fluorescence of MSCs labeled with peptide: FIGS. 30A-30G correspond to peptides A-G; for binding to early progenitor cells (RS cells): biotin-labeled peptide, streptavidin Alexafluor 594. From the text: FIG. 30, comprising FIGS. 30A-30H, is an image of a set of photomicrographs depicting solid phase binding assays to MSCs using biotinylated peptides. The labeled peptides in FIGS. 30A-30G correspond to peptides A-G in FIG. 29. FIG. 30H is a control.
The peptides were then labeled with biotin for use with a commercially available streptavidin-biotin detection system. The streptavidin was linked to a fluorescent tag (Alexafluor 594, Molecular Probes, Eugene, Oreg.) so as to be easily detected by fluorescence microscopy. MSCs were incubated with one of the peptides and the streptavidin-biotin detection system as indicated by the manufacturer's instructions. Then the MSCs were observed under a fluorescence microscope. All of these methods are well-known in the art and are easily found throughout the literature.

Test [2] has as its system hMSCs. Kind of test: Colony-forming potential of hMSCs with recombinant Dkk-1 (crystal violet). The class given is cell-based, human. On the procedure:
MSCs were plated at about 0.6 cells per cm^2 and incubated in complete medium for 17 days. For direct visualization of colonies, a 5% (w/v) solution of crystal violet in methanol (Sigma Aldrich, St. Louis, Mo.) was added to tissue culture dishes previously washed twice with PBS. After 20 minutes, the plates were washed with distilled water and air-dried. Stained colonies with diameters 2 millimeters or greater were counted.
To test the effect of recombinant Dkk-1 on the colony-forming potential of hMSCs, 100 hMSCs were plated onto a 176 cm2 tissue culture dish and allowed to form colonies in the absence or presence of Dkk-1 in medium supplemented with 10% (v/v) fetal calf serum instead of the optimal concentration of 20%.

In test [3] the test system is beta-catenin. The test can be described thus: Cellular distribution of beta-catenin in hMSCs by immunostaining. The class given is cell-based, human. The following applies: stationary phase hMSCs, 0.1 micrograms per milliliter. On the procedure:
hMSCs in tissue culture dishes were fixed with 4% (v/v) Paraformaldehyde (USB Corporation, Cleveland, Ohio) for 10 minutes at 4° C. and washed with PBS (Fisher Lifesciences, Pittsburgh, Pa.). Sections (30 millimeter×60 millimeter) of the dishes containing the adherent cells were excised using a hot scalpel under constant hydration with PBS. The samples were blocked in PBS containing 0.4% (v/v) Triton X-100 (Sigma Aldrich, St. Louis, Mo.) and 5% (v/v) goat serum (Sigma Aldrich). Anti-beta-catenin (described above) was added in a 1:400 dilution to the slides in block solution. An appropriate concentration of mouse IgG1 (Cymbus Biotechnology Chandlers Ford, Hants, UK) was used as an isotype control. The samples were incubated for 16 hours at 4° C. followed by washing in PBS. The samples were then incubated for 1 hour in a 1:800 dilution of Alexa-Fluor 594-congugated secondary antibody (Molecular Probes, Eugene, Oreg.). Isotype controls were acquired from Chemicon and Becton Dickinson Slides were washed and mounted with medium containing DAPI (Vector Laboratories Incorporated; Burlingame, Calif.). Immunofluorescence microscopy and digital imaging was carried out using an upright fluorescent microscope (Eclipse 800, Nikon, Japan). […]

Test [4] relates to hMSCs. Kind of test: Effect of recombinant Dkk-1 on hMSC proliferation (fluorescence assay for nucleic acids). Format: cell-based, human. On the procedure:
For assay of proliferation, cells were also quantified by fluorescent labeling of nucleic acids (CyQuant dye; Molecular Probes Incorporated; Eugene, Oreg.). hMSCs were plated at 100 cells per cm^2 into 10 cm^2 wells and allowed to grow for 4 days. The cells were washed with PBS and medium was added containing the appropriate concentration of Dkk-1 and FCS. The cells were recovered by trypsinization as described above. Fluorescence analysis was carried out using a microplate fluorescence reader (FLx800; Bio-Tek Instruments Incorporated; Winooski, Vt.) set to 480 nanometers excitation and 520 nanometers emission.
To test the hypothesis that Dkk-1 increased proliferation of hMSCs, its effects on rate of growth were assayed. The hMSCs were plated at a density of 100 cells per cm^2 in 6 well plates (10 per cm^2 per well). After 4 days, when the cells were in early log phase of growth, the conditioned medium was removed and replaced with fresh medium containing either vehicle, 0.1 micrograms per milliliter Dkk-1 or 0.01 micrograms per milliliter Dkk-1.

Test [5] concerns beta-catenin. The test can be described thus: beta-catenin levels in hMSCs by western blotting. The class given is cell-based, human. The following applies: stationary phase hMSCs, 0.1 micrograms per milliliter. As for the experimental part:
For immunoblotting, filters were blocked in PBS containing 0.1% (v/v) Tween 20 (Sigma, St. Louis, Mo.) for 1 hour. For detection of beta-catenin, blots were probed with an anti-beta-catenin monoclonal antibody at a dilution of 1 to 1000 (clone 5H10 Chemicon International; Temecula, Calif.) followed by an anti-mouse peroxidase-conjugated rabbit serum (Sigma Aldrich, St. Louis, Mo.). For detection of Dkk-1, blots were probed in 1 microgram per milliliter of anti Dkk-1 polyclonal antibody (see below) followed by an anti-rabbit peroxidase-conjugated monoclonal antibody (clone RG 96, Sigma Aldrich, St. Louis, Mo.). Positive bands were detected by chemiluminescence in accordance with a previously described procedure (Spees et al. Cell Stress Chaperones, 7:97-106 (2002)).
In further experiments, the effect of recombinant Dkk-1 on beta-catenin levels in hMSCs were investigated.
In general terms: A western blot detects proteins with antibodies after separation by electrophoresis.

The mark [6] stands for this setting: 100 hMSCs per 176 cm2 dish, 10% FCS, 2.5 weeks.

For the molecule “LSSKMYHTKGQEGSVCLRSS (Peptide synthesized from Dkk-1 LRP-6 binding domain) [Peptide B]”, in test [1], the “fluorescence of MSCs labeled with peptide” value is reported as “highly fluorescent” and the “binding to early progenitor cells (RS cells)” value is recorded as “tightly bound”.

Consider “sTKHRRKGSHGLEIFQRCYs (STKHRRKGSHGLEIFQRCYS; Peptide synthesized from Dkk-1 LRP-6 binding domain) [Peptide E]”, for which, in test [1], the “fluorescence of MSCs labeled with peptide” value is recorded as “highly fluorescent” and the “binding to early progenitor cells (RS cells)” value is on record as “tightly bound”.

B1: recombinant Dkk-1: Histidine-tagged recombinant human Dkk-1 expressed in E. coli, refolded from inclusion bodies; inhibitor of Wnt signaling (protein)
chain: TLNSVLNSNAIKNLPPPLGGAAGHPGSAVSAAPGILYPGGNKYQTIDNYQPYPCAEDEECGTDEYCASPTRGGDAGVQICLACRKRRKRCMRHAMCCPGNYCKNGICVSSDQNHFRGEIEETITESFGNDHSTLDGYSRRTTLSSKMYHTKGQEGSVCLRSSDCASGLCCARHFWSKICKPVLKEGQVCTKHRRKGSHGLEIFQRCYCGEGLSCRIQKDHHQASNSSRLHTCQRH
In the case of B1, the “colony size and number at high concentration” value in test [2] (0.5 micrograms per milliliter) is “reduced both the colony size and number”. For the same molecule, in test [2] (setting [6]), the colony number result was “no significant effect” and the colony size entry is listed as “increased colony size”. Besides, the “cellular distribution of beta-catenin” value in test [3] is reported as “clearance of the cytoplasmic pool of beta-catenin”. Also, the “duration of effect on proliferation” value in test [4] (0.1 micrograms per milliliter) was 30 h. Besides, the “rate of proliferation at high concentration” value in test [4] (0.5 micrograms per milliliter) was “failed to increase the rate of proliferation”. Further, in test [4] (cells approaching stationary phase of growth), the “effect on proliferation as cells approached stationary phase” value is “no significant effect”. In test [4] (early log phase hMSCs, fresh medium with 0.1 or 0.01 micrograms per milliliter Dkk-1), the “effect on lag phase and proliferation” value is “reduced the lag phase and initially increased proliferation”. In addition, the “duration of significant effect on proliferation” value in test [4] (tenfold less Dkk-1 (0.01 micrograms per milliliter)) is “about 15 hours”. The beta-catenin levels entry in test [5] is “reduced the levels of beta-catenin”.
